# Experimental data published in paper PMC9496550.
# Molecular target: full length human kynurenine 3-monooxygenase fused to the C-terminal fragment of CFP (flKMO-CC) (human) (UniProt O15229)
# Test: split reporter (BiFC, NanoBiT); BiFC in live HEK293T cells 48 h after co-transfection, 37 °C, 5% CO2; CC + VN (KMO with HTT) or VN + VC (HTT with HTT) complementation; ScanR screening station (mean green intensity normalised by co-transfected RFP) or confocal microscopy
# Sequence of UniProt O15229 (O15229 whole entry, the tested form may be a part): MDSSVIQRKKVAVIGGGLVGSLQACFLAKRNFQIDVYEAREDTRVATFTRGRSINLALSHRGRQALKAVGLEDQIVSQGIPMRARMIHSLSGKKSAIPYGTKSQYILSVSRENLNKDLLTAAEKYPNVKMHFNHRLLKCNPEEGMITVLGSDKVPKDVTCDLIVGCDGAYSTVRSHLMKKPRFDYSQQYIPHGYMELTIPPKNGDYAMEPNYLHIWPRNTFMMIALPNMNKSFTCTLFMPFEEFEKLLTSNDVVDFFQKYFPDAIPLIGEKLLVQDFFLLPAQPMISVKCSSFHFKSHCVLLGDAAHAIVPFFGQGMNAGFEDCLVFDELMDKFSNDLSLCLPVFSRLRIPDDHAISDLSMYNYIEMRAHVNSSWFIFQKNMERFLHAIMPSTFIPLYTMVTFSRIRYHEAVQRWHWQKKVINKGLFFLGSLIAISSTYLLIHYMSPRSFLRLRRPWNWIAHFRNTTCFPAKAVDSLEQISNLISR
substance,measurement,value
HTT exon 1 fragment with 97 glutamines fused to the N-terminal half of Venus (HTT97Q-VN) (domain or fragment),reduction of the BiFC signal against flKMO-19Q,50%
